Results on two substances are retold here after PMC9352529.

For assay [1], the target named is human GABAA receptor α1 subunit (HEK293T cells stably expressing α1β2γ2) (human). The experiment in a line: co-IP; HEK293T cells stably expressing α1β2γ2 GABAA receptors, treated with non-targeting siRNA or siRNAs against both EMC3 and EMC6 for 48 h; lysate incubated with anti-α1 antibody; blot for SEC61α and α1.
For assay [2], the target named is FLAG-tagged EMC3 R31A (human) (human) (UniProt Q9P0I2). The experiment in a line: co-IP; HEK293T cells stably expressing α1β2γ2 GABAA receptors, transiently transfected with FLAG-tagged EMC3 variants, or with FLAG-tagged EMC5 and EMC6 variants; lysate (50 mM Tris pH 7.5, 150 mM NaCl, 2 mM DDM) on anti-FLAG M2 magnetic beads overnight at 4°C; blot for α1 and FLAG; band intensity of α1 over FLAG.

For assay [3], the target named is FLAG-tagged EMC6 D27A (human) (human) (UniProt Q9BV81). Described as above.
The target in assay [4] is FLAG-tagged EMC6 N22A (human) (human) (UniProt Q9BV81). The assay is described as above.
For assay [5], the target named is FLAG-tagged EMC3 R180A (human) (human) (UniProt Q9P0I2). The assay is described as above.

On to “SEC61α (endogenous, HEK293T) (from UniProt P61619 1-476) (natural protein)”, for which the normalized SEC61α over α1 intensity after IP, knock-down of both EMC3 and EMC6 against non-targeting siRNA in assay [1] is 5.3 fold.
“human GABAA receptor α1 subunit (HEK293T cells stably expressing α1β2γ2) (natural protein)”: the normalized α1 intensity over FLAG after IP, relative to WT EMC3 (relative to WT EMC3) in assay [2] was 0.48; in assay [5] it was 0.4. In addition, the α1 band intensity over FLAG-tagged EMC6 after IP, relative to WT EMC6 (relative to WT EMC6) in assay [3] was 0.72; in assay [4], 0.55.
